Data taken from PMC9402713, “Structural analysis of Red1 as a conserved scaffold of the RNA-targeting MTREC/PAXT complex” (Nature Communications, 2022).
Values belong to the molecule of their own block, whether it stands above or below them. Where no end group is shown, it is not given here.

What was measured:
[1] = molecular target: His-MBP-Red1 452-524 (S. pombe) (UniProt Q9UTR8); test: SEC-MALS; His-MBP-Red1 452-524, the dimer peak, injected at 9 mg/ml; stayed dimeric on reinjection
[2] = molecular target: Ars2 68-183,206-531 (S. pombe) (UniProt O94326); test: SEC-MALS; Ars2 68-183,206-531, the dimer peak of the size exclusion chromatography
[3] = molecular target: Strep-Iss10 1-45 (S. pombe); test: SEC-MALS; co-purified Red1 192-236 / Iss10 1-45 complex on Superdex 200 10/300 GL, 4 °C, 20 mM Tris-HCl pH 8, 100 mM NaCl, 5 mM β-mercaptoethanol
[4] = molecular target: T1, full-length (FL) His-MBP-Ars2 (S. pombe, UniProt O94326 1-609); test: ITC; 200 mM NaCl
T1 chain: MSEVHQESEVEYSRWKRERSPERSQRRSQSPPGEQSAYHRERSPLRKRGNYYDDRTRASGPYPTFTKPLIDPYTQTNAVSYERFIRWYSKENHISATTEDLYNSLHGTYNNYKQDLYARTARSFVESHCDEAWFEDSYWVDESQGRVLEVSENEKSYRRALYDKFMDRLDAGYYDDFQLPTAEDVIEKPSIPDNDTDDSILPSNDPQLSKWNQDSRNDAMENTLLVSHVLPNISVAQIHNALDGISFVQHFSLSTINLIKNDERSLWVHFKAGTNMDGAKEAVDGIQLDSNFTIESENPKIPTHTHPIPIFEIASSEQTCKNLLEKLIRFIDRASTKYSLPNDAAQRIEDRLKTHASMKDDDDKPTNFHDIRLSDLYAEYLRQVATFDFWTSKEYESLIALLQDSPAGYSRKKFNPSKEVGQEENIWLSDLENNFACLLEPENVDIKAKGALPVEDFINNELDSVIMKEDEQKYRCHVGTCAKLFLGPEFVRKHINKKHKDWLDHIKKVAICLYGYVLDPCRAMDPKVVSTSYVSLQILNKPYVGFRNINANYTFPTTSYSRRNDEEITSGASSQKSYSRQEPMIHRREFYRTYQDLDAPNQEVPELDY

[5] = molecular target: full-length (FL) His-MBP-Ars2 (S. pombe) (UniProt O94326); test: ITC; 25 °C, 0.4-0.8 mM Red1 injected into 30-40 µM Ars2, 20 mM Tris pH 8.0, 200 mM NaCl, one-site model
[6] = molecular target: T2, His-GST-tagged human ARS2 147-871 (human, UniProt Q9BXP5 147-871); test: pull-down; MBP pull-down: Ni-purified His-MBP-peptide held on amylose resin, His-GST-ARS2 added; 20 mM Tris pH 8, 100 mM NaCl; eluted with 10 mM maltose; details: both partners purified
T2 construct: ARS2 (SRRT), human, residues 147-871; vector pETM30; also called hARS2^147–871; His-GST-ARS2; source: E. coli BL21Star (DE3), purified (Ni^2+ chelating Sepharose)
T2 sequence (looked up): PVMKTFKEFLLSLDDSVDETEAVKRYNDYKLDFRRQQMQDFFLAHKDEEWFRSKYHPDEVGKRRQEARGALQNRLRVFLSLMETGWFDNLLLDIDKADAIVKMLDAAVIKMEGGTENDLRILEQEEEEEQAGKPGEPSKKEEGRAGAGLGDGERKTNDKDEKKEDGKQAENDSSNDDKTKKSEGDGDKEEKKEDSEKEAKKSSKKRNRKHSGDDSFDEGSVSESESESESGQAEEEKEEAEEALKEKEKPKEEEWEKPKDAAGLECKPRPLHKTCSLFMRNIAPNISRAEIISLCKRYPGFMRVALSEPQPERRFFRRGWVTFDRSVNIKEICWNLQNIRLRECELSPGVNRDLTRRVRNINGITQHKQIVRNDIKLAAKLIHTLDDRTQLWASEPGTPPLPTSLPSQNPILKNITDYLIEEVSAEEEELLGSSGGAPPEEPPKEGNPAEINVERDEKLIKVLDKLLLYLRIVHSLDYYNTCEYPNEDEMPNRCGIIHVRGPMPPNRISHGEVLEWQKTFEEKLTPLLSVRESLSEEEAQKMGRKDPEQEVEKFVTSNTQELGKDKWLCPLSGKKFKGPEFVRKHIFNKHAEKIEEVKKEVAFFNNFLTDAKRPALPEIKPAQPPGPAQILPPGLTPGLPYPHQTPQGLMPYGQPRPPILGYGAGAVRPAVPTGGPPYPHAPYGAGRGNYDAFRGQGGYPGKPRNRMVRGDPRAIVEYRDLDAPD

[7] = molecular target: T3, full-length (FL) His-MBP-Ars2 (S. pombe, UniProt O94326 1-609); test: ITC; 25 °C, 0.4-0.8 mM Red1 injected into 30-40 µM Ars2, 20 mM Tris pH 8.0, 200 mM NaCl, one-site model; details: both partners purified
T3 construct: Ars2, S. pombe, 609 residues; the tags are named on the protein for the gel filtration; also called FL Ars2; full-length Ars2; source: E. coli, expressed as MBP fusion, purified (amylose resin, Superdex 200)
T3 sequence (looked up): T1 chain

[8] = molecular target: T4, Ars2 (58-609) (Schizosaccharomyces pombe); test: ITC; 200 mM NaCl
T4 chain: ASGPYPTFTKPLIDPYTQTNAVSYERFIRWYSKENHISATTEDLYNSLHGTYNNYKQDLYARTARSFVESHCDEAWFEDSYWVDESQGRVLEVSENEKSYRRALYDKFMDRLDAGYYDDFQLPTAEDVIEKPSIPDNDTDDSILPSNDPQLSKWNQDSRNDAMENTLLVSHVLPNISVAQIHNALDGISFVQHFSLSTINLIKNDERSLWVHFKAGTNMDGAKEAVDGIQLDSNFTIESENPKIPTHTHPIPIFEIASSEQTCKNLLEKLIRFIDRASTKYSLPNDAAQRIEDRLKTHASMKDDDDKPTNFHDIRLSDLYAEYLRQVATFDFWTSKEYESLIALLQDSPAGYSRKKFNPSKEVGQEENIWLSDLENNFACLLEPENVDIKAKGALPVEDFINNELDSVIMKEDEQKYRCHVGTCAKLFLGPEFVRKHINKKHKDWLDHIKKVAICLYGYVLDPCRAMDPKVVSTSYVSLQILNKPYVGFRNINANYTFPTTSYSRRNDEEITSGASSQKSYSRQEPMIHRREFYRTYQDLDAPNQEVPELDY

[9] = molecular target: T5, Strep-Ars2 107-527 (S. pombe, UniProt O94326 107-527); test: ITC; 25 °C, 0.4-0.8 mM Red1 injected into 30-40 µM Ars2, 20 mM Tris pH 8.0, 100 mM NaCl, one-site model; details: both partners purified
T5 construct: vector pETM41; source: E. coli BL21Star (DE3), purified (Ni^2+ chelating Sepharose); not shown: Strep-tag, C-terminal, kept
T5 sequence (looked up): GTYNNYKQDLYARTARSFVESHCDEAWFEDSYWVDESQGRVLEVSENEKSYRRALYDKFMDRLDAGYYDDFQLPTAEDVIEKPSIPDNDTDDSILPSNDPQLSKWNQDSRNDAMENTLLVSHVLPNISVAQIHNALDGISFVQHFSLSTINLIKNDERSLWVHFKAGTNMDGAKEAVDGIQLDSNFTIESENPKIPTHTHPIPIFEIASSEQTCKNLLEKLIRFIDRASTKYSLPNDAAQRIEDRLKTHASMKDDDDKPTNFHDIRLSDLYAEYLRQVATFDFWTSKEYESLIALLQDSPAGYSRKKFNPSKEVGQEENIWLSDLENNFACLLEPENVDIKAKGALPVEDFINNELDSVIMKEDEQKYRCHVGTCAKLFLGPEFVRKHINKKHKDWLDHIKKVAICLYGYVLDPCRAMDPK

[10] = molecular target: T5, Strep-Ars2 107-527; test: ITC; 25 °C, 0.4-0.8 mM Red1 injected into 30-40 µM Ars2, 20 mM Tris pH 8.0, 200 mM NaCl, one-site model; details: both partners purified

stoichiometry N [3]: 1
Molecule: TTNQKEAEKAVSQLFEVGVRFNDFIAEGIEPSVVHTLFLKLGLDS (domain or fragment) [Red1 192-236, His-MBP tag cleaved]

Kd [4]: 5.6 µM
Kd [5]: 5 µM
B1: His-MBP-Red1 1-54 (domain or fragment)
chain: MSRSINLDELRKKALESKKKNEEDESNDSDKEDGEISEDDPVIDQSNSVPPMKV

Kd [7]: ~5 µM
B3: Red1 peptide 20-40 (peptide)
peptide: KNEEDESNDSDKEDGEISEDD
notes: Red1, S. pombe, residues 20-40 with the EDGEI motif; also called Red1^20–40 peptide; Red1 N-terminal peptide; source: synthetic peptide (PSL GMBH)

binding result [6]: binds
B5: His-MBP-ZFC3H1 20-31 (domain or fragment, human, UniProt O60293 20-31, looked up)
chain: GELEDGEISDDD
notes: ZFC3H1, human, residues 20-31 (12 residues); source: E. coli BL21Star (DE3), purified (Ni^2+ chelating Sepharose)

The next lines start with the molecule.

Molecule: His-MBP-Red1 452-524 (from UniProt Q9UTR8 452-524) (domain or fragment)
stoichiometry N [1]: 2

Molecule: Ars2 68-183,206-531 (from UniProt O94326 68-183; O94326 206-531) (domain or fragment)
stoichiometry N [2]: 2

B2: His-MBP-ZFC3H1 12-33 I27L (domain or fragment, human, UniProt O60293 12-33, looked up)
chain: SGLSPKEEGELEDGELSDDDNN
notes: ZFC3H1, human, residues 12-33; source: E. coli BL21Star (DE3), purified (Ni^2+ chelating Sepharose)
binding result [6]: binds

Molecule: KNEEDESNDSDKEDGEISEDD (not fully specified)
Kd [8]: 4.4 µM

B4: His-MBP-Red1 20-40 (domain or fragment, S. pombe)
chain: KNEEDESNDSDKEDGEISEDD
notes: Red1, S. pombe, residues 20-40 with the EDGEI motif; vector pETM41; also called MBP-Red1 EDGEI motif-containing peptide; source: E. coli BL21Star (DE3), purified (Ni^2+ chelating Sepharose or amylose resin, Superdex 200)
Kd [9]: 0.8 µM
Kd [7]: ~5 µM
Kd [10]: 5 µM
binding result [6]: binds

B6: His-MBP-tagged ZFC3H1 12-33 (domain or fragment, human, UniProt O60293 12-33, looked up)
chain: SGLSPKEEGELEDGEISDDDNN
notes: ZFC3H1, human, 1989 residues, residues 12-33 with the EDGEI motif; vector pETM41; also called MBP-ZFC3H1; hZFC3H1; source: E. coli BL21Star (DE3), purified (Ni^2+ chelating Sepharose)
binding result [6]: binds
